Each block holds one binder with its values, some of them ahead of it.
Legend:
mouse RANKL = molecular target: T1, mouse RANKL (mouse, UniProt O35235 158-316, limits assumed); test: ELISA: plate-coated ligand, Xceptor detected with HRP anti-human IgG-Fc
T1 construct: also called mRANKL
T1 sequence (looked up): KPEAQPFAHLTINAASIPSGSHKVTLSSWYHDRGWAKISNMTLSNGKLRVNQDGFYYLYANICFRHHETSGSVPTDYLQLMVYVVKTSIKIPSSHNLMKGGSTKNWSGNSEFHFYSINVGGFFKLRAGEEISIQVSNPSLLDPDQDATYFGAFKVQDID
Method: (§1) Mouse and human ligands (R&D Systems, Minnesota, MN) were added to wells of a 96-well plate at a concentration of 1 μg/ml in PBS (100 μl/well). Plates were incubated at 4° C. overnight. After washing five times with PBS-T, 250 μl Blocking Buffer (PBS-T with 3% BSA) was added to each well, and the plate covered and incubated at room temperature (RT) for 2 hours. Serial three fold dilutions of xceptors were made in Working Buffer (PBS-T with 1% BSA) starting at 300 ng/ml. As a negative control, an irrelevant xceptor was used. The plate was incubated at RT for 1 hour. After washing five times with PBS-T, 100 μl per well of HRP-conjugated anti-human IgG-Fc (1:5000 in Working buffer) was added, the plate covered, and incubated at RT for 1 hour. After washing five times with PBS-T, 100 µl of Quant-Blu substrate (Pierce, Rockford, Ill.) was added to each well. The plate was incubated at RT for 10-30 minutes, and fluorescence measured at 325/420 nm.

human RANKL = molecular target: T2, human RANKL (human, UniProt O14788 140-317, limits assumed); test: as above
T2 sequence (looked up): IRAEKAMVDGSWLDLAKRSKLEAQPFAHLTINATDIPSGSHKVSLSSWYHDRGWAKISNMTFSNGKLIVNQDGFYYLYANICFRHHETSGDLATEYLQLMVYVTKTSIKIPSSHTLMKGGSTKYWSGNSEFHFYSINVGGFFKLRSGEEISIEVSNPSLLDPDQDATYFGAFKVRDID
Method: as §1

human IL7 = molecular target: T3, human IL7 (human, UniProt P13232 26-177); test: as above
T3 sequence (looked up): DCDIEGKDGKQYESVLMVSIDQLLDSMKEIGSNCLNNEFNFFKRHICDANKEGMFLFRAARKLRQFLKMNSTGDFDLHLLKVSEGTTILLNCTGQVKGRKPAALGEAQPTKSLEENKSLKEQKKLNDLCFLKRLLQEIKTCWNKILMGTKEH
Method: as §1

TRU(XT6)-1042 = molecular target: T4, TRU(XT6)-1042; test: ELISA: Xceptor captured on anti-human IgG-Fc, sIL-6R added, detected with anti-IL-6R-biotin
T4 construct: not trimmed; also called Xceptor TNFRSF1B::anti-HIL6
Method: Added to each well of a 96-well plate was 100 μl goat anti-human IgG-Fc (ICN Pharmaceuticals, Costa Mesa, Calif.) from a 2 μg/ml solution in PBS, pH 7.2-7.4. The plates were covered, and incubated overnight at 4° C. After washing four times with PBS-T, 250 μl Blocking buffer (PBS-T with 3% BSA or 10% normal goat serum) was added to each well, the plate was covered, and incubated at room temperature for 2 hours (or at 4° C. overnight). […] After washing the plate five times with PBS-T, added in duplicate wells was 100 μl/well recombinant human sIL-6R(R&D Systems) from a […] solution in Working buffer, the plate was covered, and incubated at room temperature for about 1 to 2 hours. After washing the plate five times with PBS-T, added 100 μl/well anti-human IL-6R-biotin (R&D Systems) from a 100 ng/ml solution in Working buffer, the plate was covered, and incubated at room temperature for about 1 to 2 hours. After washing the plate five times with PBS-T, 100 μl per well horse radish peroxidase-conjugated streptavidin (Zymed, San Francisco, Calif.) diluted 1:4,000 in Working buffer was added, the plate was covered, and incubated at room temperature for 30 minutes. After washing the plate six times with PBS-T, 100 μl per well 3,3,5,5-tetramentylbenzidine (TMB) substrate solution (Pierce, Rockford, Ill.) was added for about 3 to 5 minutes and then the reaction was stopped with 50 μl Stop buffer (1N H₂SO₄) per well. The absorbance of each well was read at 450 nm.

binding result (mouse RANKL): binds
binding result (human RANKL): binds
B1: Xceptor comprising a TNFRSF1B ectodomain and an OPG ectodomain (Fc fusion)
chain: LPAQVAFTPYAPEPGSTCRLREYYDQTAQMCCSKCSPGQHAKVFCTKTSDTVCDSCEDSTYTQLWNWVPECLSCGSRCSSDQVETQACTREQNRICTCRPGWYCALSKQEGCRLCAPLRKCRPGFGVARPGTETSDVVCKPCAPGTFSNTTSSTDICRPHQICNVVAIPGNASMDAVCTSTSPTRSMAPGAVHLPQPVSTRSQHTQPTPEPSTAPSTSFLLPMGPSPPAEGSTGDTGEPKSSDKTHTCPPCPAPEAAGAPSVFLFPPKPKDTLMISRTPEVTCVVVDVSHEDPEVKFNWYVDGVEVHNAKTKPREEQYNSTYRVVSVLTVLHQDWLNGKAYACAVSNKALPAPIEKTISKAKGQPREPQVYTLPPSRDELTKNQVSLTCLVKGFYPSDIAVEWESNGQPENNYKTTPPVLDSDGSFFLYSKLTVDKSRWQQGNVFSCSVMHEALHNHYTQKSLSLSPGQRHNNSSLNTGTQMAGHSPNSETFPPKYLHYDEETSHQLLCDKCPPGTYLKQHCTAKWKTVCAPCPDHYYTDSWHTSDECLYCSPVCKELQYVKQECNRTHNRVCECKEGRYLEIEFCLKHRSCPPGFGVVQAGTPERNTVCKRCPDGFFSNETSSKAPCRKHTNCSVFGLLLTQKGNATHDNICSGNSESTQKCGIDVTLCEEAFFRFAVPTKFTPNWLSVLVDNLPGTKVNAESVERIKRQHSSQEQTFQLLKLWKHQNKDQDIVKKIIQDIDLCENSVQRHIGHANLTFEQLRSLMESLPGKKVGAEDIEKTIKACKPSDQILKLLSLWRIKNGDQDTLKGLMHALKHSKTYHFPKTVTQSLKKTIRFLHSFTMYKLYQKLFLEMIGNQVQSVKISCL
notes: also called TNFR × OPG

binding result (human IL7): binds
B2: Xceptor comprising a TNFRSF1B ectodomain and an IL7R ectodomain (Fc fusion)
chain: LPAQVAFTPYAPEPGSTCRLREYYDQTAQMCCSKCSPGQHAKVFCTKTSDTVCDSCEDSTYTQLWNWVPECLSCGSRCSSDQVETQACTREQNRICTCRPGWYCALSKQEGCRLCAPLRKCRPGFGVARPGTETSDVVCKPCAPGTFSNTTSSTDICRPHQICNVVAIPGNASMDAVCTSTSPTRSMAPGAVHLPQPVSTRSQHTQPTPEPSTAPSTSFLLPMGPSPPAEGSTGDTGEPKSSDKTHTCPPCPAPEAAGAPSVFLFPPKPKDTLMISRTPEVTCVVVDVSHEDPEVKFNWYVDGVEVHNAKTKPREEQYNSTYRVVSVLTVLHQDWLNGKAYACAVSNKALPAPIEKTISKAKGQPREPQVYTLPPSRDELTKNQVSLTCLVKGFYPSDIAVEWESNGQPENNYKTTPPVLDSDGSFFLYSKLTVDKSRWQQGNVFSCSVMHEALHNHYTQKSLSLSPGQRHNNSSLNTGTQMAGHSPNSESGYAQNGDLEDAELDDYSFSCYSQLEVNGSQHSLTCAFEDPDVNITNLEFEICGALVEVKCLNFRKLQEIYFIETKKFLLIGKSNICVKVGEKSLTCKKIDLTTIVKPEAPFDLSVVYREGANDFVVTFNTSHLQKKYVKVLMHDVAYRQEKDENKWTHVNLSSTKLTLLQRKLQPAAMYEIKVRSIPDHYFKGFWSEWSPSYYFRTPEINNSSGEMDP
notes: also called TNFR × IL7R

binding result (TRU(XT6)-1042): no binding
B3: recombinant human sIL-6R (receptor)
chain: LAPRRCPAQEVARGVLTSLPGDSVTLTCPGVEPEDNATVHWVLRKPAAGSHPSRWAGMGRRLLLRSVQLHDSGNYSCYRAGRPAGTVHLLVDVPPEEPQLSCFRKSPLSNVVCEWGPRSTPSLTTKAVLLVRKFQNSPAEDFQEPCQYSQESQKFSCQLAVPEGDSSFYIVSMCVASSVGSKFSKTQTFQGCGILQPDPPANITVTAVARNPRWLSVTWQDPHSWNSSFYRLRFELRYRAERSKTFTTWMVKDLQHHCVIHDAWSGLRHVVQLRAQEEFGQGEWSEWSPEAMGTPWTESRSPPAENEVSTPMQALTTNKDDDNILFRDSANATSLPVQD
notes: Bought; also called human soluble IL6R

From patent US20110152173A1 (EMERGENT PRODUCT DEVELOPMENT SEATTLE, published 2011)
